Data taken from patent publication US20020164759A1 (UNIVERSITY OF GEORGIA RESEARCH FOUNDATION, published 2002).

How the values were obtained:
[1] = molecular target: Porphyromonas gingivalis dipeptidylpeptidase-7 (DPP-7), purified from strain HG66 (Porphyromonas gingivalis) (UniProt B2RKV3); assay: cell-based or functional assay
[2] = molecular target: T1, Ala-Pro-Val-Arg-Ser-Leu (SEQ ID NO:16)
T1 chain: APVRSL

[3] = molecular target: T2, Gln-Lys-Gln-Met-Ser-Asp-Arg-Arg-Glu (SEQ ID NO:17)
T2 chain: QKQMSDRRE

[4] = molecular target: T3, Ile-Ala-Arg-Arg-His-Pro-Tyr-Phe-Leu (SEQ ID NO:11)
T3 chain: IARRHPYFL

[5] = molecular target: T4, Lys-Ile-Ala-Gly-Tyr-His-Leu-Glu-Leu (SEQ ID NO:12)
T4 chain: KIAGYHLEL

[6] = molecular target: T5, Phe-Leu-Arg-Glu-Pro-Val-Ile-Phe-Leu (SEQ ID NO:13)
T5 chain: FLREPVIFL

[7] = molecular target: T6, Ser-Pro-Tyr-Ser-Ser-Glu-Thr-Thr (SEQ ID NO:15)
T6 chain: SPYSSETT

[8] = molecular target: T7, Trp-Ala-Gly-Gly-Asp-Ala-Ser-Gly-Glu (SEQ ID NO:10)
T7 chain: WAGGDASGE

[9] = molecular target: T8, Trp-His-Trp-Leu-Glu-Leu-Lys-Pro-Gly-Glu-Pro-Met-Tyr (SEQ ID NO:14)
T8 chain: WHWLELKPGEPMY

[10] = molecular target: carboxymethylated lysosyme
[11] = molecular target: T9, Porphyromonas gingivalis dipeptidylpeptidase-7 (DPP-7), purified from strain HG66 (Porphyromonas gingivalis, UniProt B2RKV3 24-712); assay: cell-based or functional assay
T9 sequence: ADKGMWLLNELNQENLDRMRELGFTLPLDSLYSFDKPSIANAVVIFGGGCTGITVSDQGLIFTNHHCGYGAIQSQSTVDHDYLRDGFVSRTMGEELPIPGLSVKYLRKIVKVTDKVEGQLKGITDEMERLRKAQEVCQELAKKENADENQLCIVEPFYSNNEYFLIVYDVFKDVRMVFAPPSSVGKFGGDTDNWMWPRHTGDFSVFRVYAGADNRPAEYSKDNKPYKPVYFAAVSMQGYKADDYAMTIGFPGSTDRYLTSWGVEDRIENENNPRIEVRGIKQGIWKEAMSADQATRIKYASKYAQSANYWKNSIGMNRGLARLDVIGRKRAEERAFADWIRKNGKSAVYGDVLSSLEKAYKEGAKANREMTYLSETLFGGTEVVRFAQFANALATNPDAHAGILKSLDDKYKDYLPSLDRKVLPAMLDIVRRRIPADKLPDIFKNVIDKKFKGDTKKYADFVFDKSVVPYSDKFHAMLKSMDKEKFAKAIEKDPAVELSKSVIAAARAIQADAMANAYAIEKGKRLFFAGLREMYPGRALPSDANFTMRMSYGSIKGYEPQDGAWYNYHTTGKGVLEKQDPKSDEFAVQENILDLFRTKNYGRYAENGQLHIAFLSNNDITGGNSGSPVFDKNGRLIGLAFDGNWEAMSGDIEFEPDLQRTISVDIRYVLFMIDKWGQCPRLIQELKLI

Aprotinin (from UniProt P00974 36-93)
% of residual activity of DPP-7 against H-Ala-Phe-pNA after preincubation with 0.5 mg/ml inhibitor [1]: 128%

B1: Porphyromonas gingivalis dipeptidylpeptidase-7 (DPP-7), purified from strain HG66 (protein)
chain: ADKGMWLLNELNQENLDRMRELGFTLPLDSLYSFDKPSIANAVVIFGGGCTGITVSDQGLIFTNHHCGYGAIQSQSTVDHDYLRDGFVSRTMGEELPIPGLSVKYLRKIVKVTDKVEGQLKGITDEMERLRKAQEVCQELAKKENADENQLCIVEPFYSNNEYFLIVYDVFKDVRMVFAPPSSVGKFGGDTDNWMWPRHTGDFSVFRVYAGADNRPAEYSKDNKPYKPVYFAAVSMQGYKADDYAMTIGFPGSTDRYLTSWGVEDRIENENNPRIEVRGIKQGIWKEAMSADQATRIKYASKYAQSANYWKNSIGMNRGLARLDVIGRKRAEERAFADWIRKNGKSAVYGDVLSSLEKAYKEGAKANREMTYLSETLFGGTEVVRFAQFANALATNPDAHAGILKSLDDKYKDYLPSLDRKVLPAMLDIVRRRIPADKLPDIFKNVIDKKFKGDTKKYADFVFDKSVVPYSDKFHAMLKSMDKEKFAKAIEKDPAVELSKSVIAAARAIQADAMANAYAIEKGKRLFFAGLREMYPGRALPSDANFTMRMSYGSIKGYEPQDGAWYNYHTTGKGVLEKQDPKSDEFAVQENILDLFRTKNYGRYAENGQLHIAFLSNNDITGGNSGSPVFDKNGRLIGLAFDGNWEAMSGDIEFEPDLQRTISVDIRYVLFMIDKWGQCPRLIQELKLI
Peptides not cleaved (reverse-phase HPLC, mass spectrometry) [2]: Peptides not cleaved | Peptides not cleaved (reverse-phase HPLC, mass spectrometry) [3]: Peptides not cleaved | Peptides cleaved (hydrolysis products separated by reverse-phase HPLC, mass spectrometry) [4]: Ile-Ala-↓-Arg-Arg-His-Pro-Tyr-Phe-Leu | Peptides cleaved (hydrolysis products separated by reverse-phase HPLC, mass spectrometry) [5]: Lys-Ile-↓-Ala-Gly-Tyr-His-Leu-Glu-Leu | Peptides cleaved (hydrolysis products separated by reverse-phase HPLC, mass spectrometry) [6]: Phe-Leu-↓-Arg-Glu-Pro-Val-Ile-Phe-Leu | Peptides not cleaved (reverse-phase HPLC, mass spectrometry) [7]: Peptides not cleaved | Peptides cleaved (hydrolysis products separated by reverse-phase HPLC, mass spectrometry) [8]: Trp-Ala-↓-Gly-Gly-Asp-Ala-Ser-Gly-Glu | Peptides not cleaved (reverse-phase HPLC, mass spectrometry) [9]: Peptides not cleaved | endopeptidase activity (azocazein): did not show any endopeptidase activity | endopeptidase activity [10]: did not show any endopeptidase activity | endopeptidase activity (gelatin): did not show any endopeptidase activity | endopeptidase activity (insulin β chain): did not show any endopeptidase activity | endopeptidase activity (type I collagen): did not show any endopeptidase activity

AG [Ala-Gly]
% of residual activity of DPP-7 against H-Ala-Phe-pNA after preincubation with 100 mM compound [11]: 96%

GA [Gly-Ala]
% of residual activity of DPP-7 against H-Ala-Phe-pNA after preincubation with 100 mM compound [11]: 102%

RF [Arg-Phe]
% of residual activity of DPP-7 against H-Ala-Phe-pNA after preincubation with 100 mM compound [11]: 69%
